Results on one substance are retold here after patent US20080260731A1.

In the experiment the target is human V158 FcγRIIIa (FcγR-His) (human) (UniProt P08637). Put plainly: Biacore SPR. A general note: In SPR one partner is held on a chip, and binding of the other changes the refractive index at the surface.
Sequence of human V158 FcγRIIIa (FcγR-His) (human) (P08637 17-208 F176V limits assumed): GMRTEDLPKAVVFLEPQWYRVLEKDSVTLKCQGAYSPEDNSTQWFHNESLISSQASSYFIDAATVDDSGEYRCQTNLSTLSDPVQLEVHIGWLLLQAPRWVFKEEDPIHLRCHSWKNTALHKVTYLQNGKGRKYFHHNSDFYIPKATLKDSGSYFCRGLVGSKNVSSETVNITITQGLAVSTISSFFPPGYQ

Usually Kd stands for the concentration at which binding is half-saturated. In turn, “4G7 IgG1 antibody (chimeric, murine H0/L0 variable regions on human IgG1/kappa)” displayed a Kd of 240 nM.
